Measured values from patent publication US8138323 (YEDA RESEARCH AND DEVELOPMENT, dated 2012).

Target: TNF (UniProt P01375 77-233)
Experiment: cell-based or functional assay

TNF, sequence (P01375 77-233 limits assumed): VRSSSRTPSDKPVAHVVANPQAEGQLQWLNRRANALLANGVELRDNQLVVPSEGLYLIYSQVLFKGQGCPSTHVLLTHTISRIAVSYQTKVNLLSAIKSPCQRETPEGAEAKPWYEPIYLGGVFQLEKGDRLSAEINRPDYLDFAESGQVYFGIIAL

B1: Tumor Necrosis Factor (TNF) Binding Protein II (receptor, human, UniProt P20333 25-213, looked up)
chain: AQVAFTPYAPEPGSTCRLREYYDQTAQMCCSKCSPGQHAKVFCTKTSDTVCDSCEDSTYTQLWNWVPECLSCGSRCSSDQVETQACTREQNRICTCRPGWYCALSKQEGCRLCAPLRKCRPGFGVARPGTETSDVVCKPCAPGTFSNTTSSTDICRPHQICNVVAIPGNASMDAVCTSTSPTRSMAPGA
- detectable cytotoxicity of rTNF in the presence of TBP-II against rTNF alone, days 2 to 9: 10 fold
